Experimental data as given in patent publication US20190002514A1 (Dana-Farber, published 2019).
Blank lines part the entries; values can stand above or below the binder they belong to. Starred links: 1 amine or outer side, 2 acyl side, 3 side chain; linkers in the order of their positions; H or OH if unused. Positions of bridges follow the written chain, without caps; N, C: chain ends. Non-standard residues stand in square brackets, D forms with d. No end group written: not given here. *: point of attachment. Nip(3R) = O=C([C@@H]1CCCN([*:1])C1)[*:2]; S5 = C=CCCC[C@](C)(N)C(=O)O; Acryloyl = C=CC(=O)*

Tests used:
[1] = biological target: T1, BFL-1ΔC C4S/C19S (human, UniProt Q16548 1-153); assay: covalent conjugation, 10:1 peptide:protein, reducing and denaturing gel, Coomassie
T1 construct: range 1-153; Recombinant, E. coli; made by site-directed mutagenesis; also called His-BFL-1ΔC C4S/C19S; C55-only BFL-1; not shown: N-terminal His tag from the pET19b vector
T1 sequence (looked up): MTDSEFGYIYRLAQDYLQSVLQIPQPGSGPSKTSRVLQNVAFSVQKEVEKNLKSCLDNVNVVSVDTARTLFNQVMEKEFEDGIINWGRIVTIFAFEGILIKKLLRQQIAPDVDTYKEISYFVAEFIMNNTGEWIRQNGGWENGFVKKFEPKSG
Protocol: Processing for gel electrophoresis and Coomassie staining was performed as above.

[2] = biological target: T2, Bfl-1 (recombinant protein of Examples 1-4) (UniProt Q16548 1-153, limits assumed); assay: fluorescence polarization: FITC-labelled SAHB, anti-apoptotic protein serially diluted from 1 µM
T2 construct: also called 9xHis-tagged Bfl-1
T2 sequence (looked up): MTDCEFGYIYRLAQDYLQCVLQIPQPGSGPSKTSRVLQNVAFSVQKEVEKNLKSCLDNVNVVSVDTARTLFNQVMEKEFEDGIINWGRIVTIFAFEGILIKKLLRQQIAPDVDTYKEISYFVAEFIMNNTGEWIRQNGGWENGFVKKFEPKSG
Protocol: (§1) The solution-state equilibrium binding assay was used to determine binding affinities of the stapled peptides to the anti-apoptotic proteins. Proteins were serially diluted from 1 μM, then combined with FITC-labeled SAHB and polarization measured at 5 min on a microplate reader. We then calculated dissociation constants (KD) by nonlinear regression analysis of dose-response curves.

[3] = biological target: T3, MCL-1 (recombinant protein of Examples 1-4) (UniProt Q07820 170-327, limits assumed); assay: as above
T3 construct: also called MCL-I
T3 sequence (Q07820 170-327 limits assumed): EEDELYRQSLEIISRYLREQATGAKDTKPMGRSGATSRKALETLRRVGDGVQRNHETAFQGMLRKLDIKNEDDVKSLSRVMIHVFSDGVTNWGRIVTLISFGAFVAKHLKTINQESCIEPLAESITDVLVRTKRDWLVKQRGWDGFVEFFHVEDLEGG
Protocol: as §1

[4] = biological target: T4, BFL-1 C4S/C19S/C55S; assay: biolayer interferometry (Octet RED384): biotin-PEG-NOXA SAHB on super streptavidin tips, BFL-1ΔC construct in solution
T4 construct: member of m33; m12 without cysteines; also called BFL-1ΔC C4S/C19S/C55S
T4 chain: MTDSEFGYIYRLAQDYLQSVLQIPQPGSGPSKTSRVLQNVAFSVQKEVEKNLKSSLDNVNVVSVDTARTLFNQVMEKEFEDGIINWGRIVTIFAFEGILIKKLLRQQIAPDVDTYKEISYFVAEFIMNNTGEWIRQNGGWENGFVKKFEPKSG
Protocol: (§2) Excess streptavidin was quenched by incubation with 2 μg/mL biocytin. The tips were then washed with kinetics buffer and soaked in a serial dilution of BFL-1ΔC for 10 min to measure association rate, followed by a 15 min incubation in kinetics buffer to measure dissociation rate. Dissociation constants were calculated using Octet Data Analysis version 9.0.

[5] = biological target: T5, BFL-1ΔC (aa 1-153) (human, UniProt Q16548 1-153); assay: as above
T5 construct: Recombinant, expressed in E. coli; the recombinant construct's species is not restated; also called wild-type BFL-1ΔC; BFL-1 WT; not shown: N-terminal His tag and vector-derived linker of pET19b
T5 sequence: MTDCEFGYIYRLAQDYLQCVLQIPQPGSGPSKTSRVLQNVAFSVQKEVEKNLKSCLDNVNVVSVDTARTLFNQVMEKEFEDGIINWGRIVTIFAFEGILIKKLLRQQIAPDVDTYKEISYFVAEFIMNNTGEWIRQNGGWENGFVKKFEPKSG
Protocol: as §2

[6] = biological target: T1, BFL-1ΔC C4S/C19S; assay: as above
Protocol: as §2

[7] = biological target: T5, BFL-1ΔC (aa 1-153); assay: covalent conjugation assay, gel shift
[8] = biological target: T6, HA-BFL-1ΔC C4S/C19S (human, UniProt Q16548 1-153); assay: crosslinking in lysates of transfected 293T cells, anti-HA and biotin western analysis
T6 construct: range 1-153; tested in lysates and in intact cells; also called expressed BFL-1; not shown: HA tag
T6 sequence (looked up): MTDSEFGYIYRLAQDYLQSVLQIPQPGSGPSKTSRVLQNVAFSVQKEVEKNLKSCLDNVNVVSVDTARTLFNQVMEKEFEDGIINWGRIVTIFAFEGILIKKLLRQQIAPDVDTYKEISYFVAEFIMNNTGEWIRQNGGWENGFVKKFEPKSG
Protocol: For lysate experiments, cells were trypsinized 24 hours post-transfection, washed with PBS, and lysed by incubation with 1% CHAPS lysis buffer (150 mM NaCl, 50 mM Tris pH 7.4, 100 mM DTT). Protein concentration of the soluble fraction was measured using a BCA kit according to manufacturer's instructions (Thermo Scientific). […] Samples were then boiled in LDS buffer and subjected to western analysis using 1:1000 dilutions of HA (Sigma-Aldrich, #12CA5) and biotin (Abcam, #53494) antibodies. […] After 24 h, cells were trypsinized, washed with PBS, lysed in 1% CHAPS buffer, and the supernatant collected for protein concentration determination by BCA kit. […] The mixtures were then subjected to HA or FLAG (Sigma-Aldrich, F7425) immunoprecipitation, followed by western analysis using 1:1000 dilutions of HA, FLAG, biotin, and BID (Santa Cruz sc-11423) antibodies. […] Cells were harvested and lysed as above, and incubated overnight with anti-HA agarose beads (Pierce). The beads were washed 3 times with lysis buffer, eluted by boiling in LDS buffer, and subjected to western analysis with HA and biotin antibodies.

[9] = biological target: T7, native BFL-1 (A375P melanoma cells) (human, UniProt Q16548 1-175); assay: A375P lysates with biotinylated peptides, streptavidin pull-down, BFL-1 western analysis; also biotinylation of purified mitochondria
T7 construct: also called native mitochondrial BFL-1
T7 sequence: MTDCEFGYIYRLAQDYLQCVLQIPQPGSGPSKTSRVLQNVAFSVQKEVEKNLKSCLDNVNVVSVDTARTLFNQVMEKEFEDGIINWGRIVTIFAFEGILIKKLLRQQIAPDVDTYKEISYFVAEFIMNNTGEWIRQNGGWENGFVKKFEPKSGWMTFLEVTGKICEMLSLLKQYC

B1: BIM SAHBA bearing warhead 1 (peptide)
peptide: [(3S)‑1‑acryloylpyrrolidine‑3‑carboxylic acid]IAQELR[S5]IGD[S5]FNAYYARR
modifications: staple 8-12
notes: Member of the BIM SAHBA warhead panel 1-8
binding result [1]: binds

B3: NOXA SAHBA (peptide)
peptide: AELEVECATQLR[S5]FGD[S5]LNFRQKLL
modifications: staple 13-17; also: N-terminal PEG-biotin or FITC depending on assay
notes: Stapled NOXA BH3 (aa 19-43) with native C25; also called WT NOXA SAHB; wild-type NOXA SAHBA
EC50 (read off the curve) [2]: ~100 nM
EC50 (read off the curve) [3]: ~200 nM
Kd [4]: 118 nM
Kd [5]: 122 nM
Kd [6]: 165 nM

B4: NOXA SAHBA C25S (peptide)
peptide: AELEVESATQLR[S5]FGD[S5]LNFRQKLL
modifications: staple 13-17; also: N-terminal PEG-biotin or FITC depending on assay
notes: Stapled NOXA BH3 with C25S; also called NOXA C25S SAHB; C25S mutant peptide
Kd [4]: 58.2 nM
Kd [5]: 46.6 nM
Kd [6]: 47.2 nM

B6: NOXA SAHBA bearing warhead 5 (peptide)
peptide: Acryloyl-PEVESATQLR[S5]FGD[S5]LNFRQKLL
modifications: staple 11-15; also: X1 proline L or D not settled
notes: Member of the NOXA SAHBA warhead panel 1-8
binding result [1]: binds

B7: NOXA SAHBA bearing warhead 1 (peptide)
peptide: Acryloyl-[(3S)‑pyrrolidine‑3‑carboxylic acid]EVESATQLR[S5]FGD[S5]LNFRQKLL
modifications: staple 11-15
notes: as for B6
binding result [1]: binds

Other lines, results leading:

binding result [1]: binds
B2: BIM SAHBA bearing warhead 8 (peptide)
peptide: Acryloyl-IAQELR[S5]IGD[S5]FNAYYARR
modifications: staple 7-11
notes: as for B1

EC50 (read off the curve) [2]: ~200 nM
binding result [3]: no binding (tested: 1e-6 M)
B5: NOXA SAHBA F32Y (peptide)
peptide: AELEVECATQLR[S5]YGD[S5]LNFRQKLL
modifications: staple 13-17; also: FITC-labelled for FP assay

binding result [7]: binds
binding result [1]: binds
binding result [8]: binds
binding result [9]: binds
B8: BIM SAHBA-3 (peptide)
peptide: [Nip(3R)](Acryloyl)IAQELR[S5]IGD[S5]FNAYYARR
modifications: staple 8-12
notes: Warhead-bearing BIM SAHBA (aa 147-166); also called BIM SAHBA-WH with warhead 3; biotinylated BIM SAHBA-3
